1 molecule from doi:10.1101/2022.06.14.496144, “Crystal structure and functional peculiarities of a primordial Orange Carotenoid Protein (OCPX)” (bioRxiv, 2022) can be followed below.

In the assay the target is T1, SynOCP1 lacking the N-terminal extension (ΔNTE-SynOCP1) (Synechocystis sp. PCC 6803, UniProt P74102 13-317).
T1 construct: Orange Carotenoid Protein of Synechocystis sp; PCC 6803 (Uniprot P74102) lacking residues M1-F12 from the N-terminus; also called SynOCP1 ΔNTE mutant; source: E. coli C41(DE3) synthesizing echinenone, purified (subtractive IMAC, SEC)
T1 sequence (looked up): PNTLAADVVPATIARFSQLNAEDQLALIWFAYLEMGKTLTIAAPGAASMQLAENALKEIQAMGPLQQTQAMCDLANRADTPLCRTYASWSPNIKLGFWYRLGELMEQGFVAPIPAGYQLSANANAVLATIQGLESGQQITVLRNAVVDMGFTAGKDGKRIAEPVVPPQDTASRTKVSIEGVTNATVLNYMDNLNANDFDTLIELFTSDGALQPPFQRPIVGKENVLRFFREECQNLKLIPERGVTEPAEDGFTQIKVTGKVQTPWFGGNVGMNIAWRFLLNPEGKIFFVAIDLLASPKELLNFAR
Nature of the assay: SEC; spectrochromatography on Superdex 200 Increase 5/150 with diode-array detection; ΔNTE-OCP 20 μM mixed with FRP 40 μM; 20 mM Tris-HCl pH 7.6, 150 mM NaCl; absorbance spectrum ('oranging') read in the same runs. The following applies: both partners purified. For orientation: Size exclusion chromatography separates by hydrodynamic size, large species first.

B1: Fluorescence Recovery Protein from Synechocystis (SynFRP) (natural protein, UniProt P74103 1-109, looked up)
chain: MLQTAEAPWSQAETQSAHALFRKAYQRELDGLLATVQAQASQITQIDDLWKLHDFLSAKRHEIDGKYDDRQSVIIFVFAQLLKEGLVQAEELTFLAADKQSKIKALARL
notes: Fluorescence Recovery Protein of Synechocystis (Uniprot P74103); source: E. coli C41(DE3), purified (subtractive IMAC, SEC)
Regarding B1, the binding result is recorded as “binds”.
